Target: T1, SBP-fused phyB (SBP-phyB), recombinant full-length phyB (Arabidopsis thaliana, UniProt P14713 1-1172, made in phycocyanobilin-producing LMG194 (chromophore); Pfr or Pr form set by a red or far-red light pulse)
T1 construct: phytochrome B (phyB), Arabidopsis thaliana, full length; pBAD-derived vector; the Pfr and Pr forms are told apart by the assay; also called phytochrome B; Pfr form; source: phycocyanobilin-producing E. coli LMG194, purified (Ni-NTA, Streptavidin sepharose)
T1 sequence (looked up): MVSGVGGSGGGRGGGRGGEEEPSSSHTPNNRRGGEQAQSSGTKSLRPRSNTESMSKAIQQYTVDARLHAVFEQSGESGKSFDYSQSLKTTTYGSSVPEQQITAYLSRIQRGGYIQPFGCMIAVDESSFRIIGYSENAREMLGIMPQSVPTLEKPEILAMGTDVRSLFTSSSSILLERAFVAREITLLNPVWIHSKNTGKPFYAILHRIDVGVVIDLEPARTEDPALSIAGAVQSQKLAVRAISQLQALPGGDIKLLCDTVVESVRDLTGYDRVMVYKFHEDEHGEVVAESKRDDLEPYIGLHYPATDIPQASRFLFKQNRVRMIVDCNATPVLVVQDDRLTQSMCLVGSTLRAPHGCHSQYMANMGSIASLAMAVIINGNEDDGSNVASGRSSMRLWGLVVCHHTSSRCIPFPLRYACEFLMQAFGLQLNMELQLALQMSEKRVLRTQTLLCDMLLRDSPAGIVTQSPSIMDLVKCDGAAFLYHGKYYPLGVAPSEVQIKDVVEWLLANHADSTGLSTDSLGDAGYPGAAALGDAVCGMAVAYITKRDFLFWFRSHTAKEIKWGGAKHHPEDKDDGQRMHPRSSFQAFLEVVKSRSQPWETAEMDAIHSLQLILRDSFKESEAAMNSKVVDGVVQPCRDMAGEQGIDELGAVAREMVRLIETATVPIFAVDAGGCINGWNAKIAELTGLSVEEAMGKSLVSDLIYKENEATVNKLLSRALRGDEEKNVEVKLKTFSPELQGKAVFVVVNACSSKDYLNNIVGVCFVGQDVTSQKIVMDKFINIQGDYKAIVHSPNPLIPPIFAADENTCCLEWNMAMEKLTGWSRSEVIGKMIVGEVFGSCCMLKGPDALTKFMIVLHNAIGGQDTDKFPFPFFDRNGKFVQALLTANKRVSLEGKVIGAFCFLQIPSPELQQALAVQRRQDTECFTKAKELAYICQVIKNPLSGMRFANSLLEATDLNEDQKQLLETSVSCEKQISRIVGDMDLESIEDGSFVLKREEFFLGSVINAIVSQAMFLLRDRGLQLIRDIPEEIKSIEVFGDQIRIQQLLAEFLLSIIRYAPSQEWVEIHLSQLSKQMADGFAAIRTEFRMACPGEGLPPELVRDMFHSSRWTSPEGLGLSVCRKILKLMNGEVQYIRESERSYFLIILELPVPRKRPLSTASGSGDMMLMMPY
Assay: pull-down; GST fusions incubated with SBP-phyB in the Pfr form (red light pulse 25 μmol/m2/s, 10 min, before the incubation), glutathione resin; 25 mM HEPES, 150 mM KCl, 1 mM DTT, pH 7.40; green safety light
Conditions: both partners purified

B1: GST-fused PIF4 (GST-PIF4) (natural protein, Arabidopsis thaliana, UniProt Q8W2F3 1-430, looked up)
chain: MEHQGWSFEENYSLSTNRRSIRPQDELVELLWRDGQVVLQSQTHREQTQTQKQDHHEEALRSSTFLEDQETVSWIQYPPDEDPFEPDDFSSHFFSTMDPLQRPTSETVKPKSSPEPPQVMVKPKACPDPPPQVMPPPKFRLTNSSSGIRETEMEQYSVTTVGPSHCGSNPSQNDLDVSMSHDRSKNIEEKLNPNASSSSGGSSGCSFGKDIKEMASGRCITTDRKRKRINHTDESVSLSDAIGNKSNQRSGSNRRSRAAEVHNLSERRRRDRINERMKALQELIPHCSKTDKASILDEAIDYLKSLQLQLQVMWMGSGMAAAAASAPMMFPGVQPQQFIRQIQSPVQLPRFPVMDQSAIQNNPGLVCQNPVQNQIISDRFARYIGGFPHMQAATQMQPMEMLRFSSPAGQQSQQPSSVPTKTTDGSRLDH
notes: source: E. coli BL21(DE3)-CodonPlus-RIL, purified (Ni-NTA, glutathione agarose); not shown: GST, N-terminal, kept
binding result: binds

— publication PMC10042835, “Phytochrome B photobodies are comprised of phytochrome B and its primary and secondary interacting proteins” (Nature Communications, 2023)
